Experimental data taken from paper PMC11332825, “Residues in the fructose-binding pocket are required for ketohexokinase-A activity” (The Journal of Biological Chemistry, 2024).
Changes are numbered by the printed parent chain. Numbers in names are those of the source.

B1: human ketohexokinase-A (KHK-A), wild type (enzyme)
chain: QILCVGLVVLDVISLVDKYPKEDSEIRCLSQRWQRGGNASNSCTVLSLLGAPCAFMGSMAPGHVADFVLDDLRRYSVDLRYTVFQTTGSVPIATVIINEASGSRTILYYDRSLPDVSATDFEKVDLTQFKWIHIEGRNASEQVKMLQRIDAHNTRQPPEQKIRVSVEVEKPREELFQLFGYGDVVFVSKDVAKHLGFQSAEEALRGLYGRVRKGAVLVCAWAEEGADALGPDGKLLHSDAFPPPRVVDTLGAGDTFNASVIFSLSQGRSVQEALRFGCQVAGKKCGLQGFDGIV
notes: ketohexokinase, splice isozyme A (KHK-A), human; good electron density for residues 3 to 298; theoretical molecular weight of the monomer printed as 34.65 kDa; Cloned into pET-28b(+) by GenScript; also called WT KHK-A; WT; source: E. coli BL21-CodonPlus-RIL, purified (Ni-NTA, Superdex 200 gel filtration)
B2: human ketohexokinase-A R141E/K174A double mutant (enzyme)
chain: B1 chain with R137E, K170A
notes: ketohexokinase, splice isozyme A (KHK-A), human, with R141E and K174A; Expressed and purified as described for WT KHK-A; PDB 2HLZ is the wild-type parent; source: E. coli BL21-CodonPlus-RIL, purified (Ni-NTA, Superdex 200 gel filtration)
B3: human ketohexokinase-A N45A (enzyme)
chain: B1 chain with N41A
notes: ketohexokinase, splice isozyme A (KHK-A), human, with N45A; Expressed and purified as described for WT KHK-A; PDB 2HLZ is the wild-type parent; source: E. coli BL21-CodonPlus-RIL, purified (Ni-NTA, Superdex 200 gel filtration)
B4: human ketohexokinase-A N42A (enzyme)
chain: B1 chain with N38A
notes: ketohexokinase, splice isozyme A (KHK-A), human, with N42A; Expressed and purified as described for WT KHK-A; PDB 2HLZ is the wild-type parent; also called KHK-A N42A; source: E. coli BL21-CodonPlus-RIL, purified (Ni-NTA, Superdex 200 gel filtration)
B5: human ketohexokinase-A R141E (enzyme)
chain: B1 chain with R137E
notes: ketohexokinase, splice isozyme A (KHK-A), human, with R141E; Results and legends print R141E; the abstract and the discussion speak of R141A / alanine at R141; PDB 2HLZ is the wild-type parent; source: E. coli BL21-CodonPlus-RIL, purified (Ni-NTA, Superdex 200 gel filtration)
B6: human ketohexokinase-A K174A (enzyme)
chain: B1 chain with K170A
notes: ketohexokinase, splice isozyme A (KHK-A), human, with K174A; Expressed and purified as described for WT KHK-A; PDB 2HLZ is the wild-type parent; source: E. coli BL21-CodonPlus-RIL, purified (Ni-NTA, Superdex 200 gel filtration)
B7: human ketohexokinase-A N42K (enzyme)
chain: B1 chain with N38K
notes: ketohexokinase, splice isozyme A (KHK-A), human, with N42K; Expressed and purified as described for WT KHK-A; PDB 2HLZ is the wild-type parent; source: E. coli BL21-CodonPlus-RIL, purified (Ni-NTA, Superdex 200 gel filtration)
B8: human ketohexokinase-A D15A (enzyme)
chain: B1 chain with D11A
notes: ketohexokinase, splice isozyme A (KHK-A), human, with D15A; Expressed and purified as described for WT KHK-A; PDB 2HLZ is the wild-type parent; also called KHK-A D15A; source: E. coli BL21-CodonPlus-RIL, purified (Ni-NTA, Superdex 200 gel filtration)

Biological target: the molecule itself
Test: mass photometry; 100 nM protein diluted in PBS (pH 7.4), room temperature, 60 s acquisition, TwoMP mass photometer; monomer to dimer

Protein	stoichiometry N
B1	2
B2	2
B3	2
B4	2
B5	2
B6	2
B7	2
B8	2
